The results in this text go back to patent US20250163164A1 (LANOVA MEDICINES DEVELOPMENT, published 2025).

Positions count from the first letter of the chain named.

Sequences and labels used below:
T1: human interleukin 13 receptor subunit alpha 2 (IL-13RA2) (human, UniProt Q14627 27-380)
T1 construct: whole, on cells; also called IL-13Rα2; CD213A2
T1 sequence (looked up): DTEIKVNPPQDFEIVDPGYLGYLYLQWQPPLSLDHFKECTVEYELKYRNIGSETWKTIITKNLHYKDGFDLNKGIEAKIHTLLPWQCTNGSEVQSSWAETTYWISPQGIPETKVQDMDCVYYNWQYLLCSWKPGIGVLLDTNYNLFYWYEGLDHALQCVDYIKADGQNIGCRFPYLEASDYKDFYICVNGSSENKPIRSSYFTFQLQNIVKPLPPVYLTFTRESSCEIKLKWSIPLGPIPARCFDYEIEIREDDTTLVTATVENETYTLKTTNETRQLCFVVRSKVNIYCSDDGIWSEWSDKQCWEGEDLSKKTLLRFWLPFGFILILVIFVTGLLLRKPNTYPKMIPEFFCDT

B1: 57F8H3F1 H2L2 hIgG1 (antibody, V domains shown)
VH: QVQLVQSGAEVVKPGASVKVSCKASGYTFTNYWMNWVRQAPGQGLEWIGRIDAYETETHYNQKFRDRVTMTVDTSTSTVYMELSSLRSEDTAVYYCARGYGHYYGVDYWGQGTLVTVSS
VL: DIQMTQSPSSLSASVGDRVTITCRASENVGNFGISFVNWFQQKPGKAPKLLIYAASNLGSGDPSRFSGSGSGTDFTLTISSLQPEDFATYFCQQSKGVPWTFGQGTKVEIK
notes: humanized, hIgG1
B2: 57F8H3F1 H3L2 hIgG1 (antibody, V domains shown)
VH: B1 VH with V20L, R38K, V68A, M70L, T74K
VL: B1 VL
notes: humanized, hIgG1
B3: 57F8H3F1 H2L4 hIgG1 (antibody, V domains shown)
VH: B1 VH
VL: B1 VL with Q3V, M4L, V19A, A47P, S64A, Q104G, V108L
notes: humanized, hIgG1
B4: 57F8H3F1 H1L3 hIgG1 (antibody, V domains shown)
VH: B1 VH with V12K, I48M, V72R
VL: B1 VL with M4L, S64A, Q104G
notes: humanized, hIgG1
B5: 57F8H3F1 H1L1 hIgG1 (antibody, V domains shown)
VH: B1 VH with V12K, I48M, V72R
VL: B1 VL with F40Y, D62V, F91Y
notes: humanized, hIgG1
B6: 57F8H3F1 H2L3 hIgG1 (antibody, V domains shown)
VH: B1 VH
VL: B1 VL with M4L, S64A, Q104G
notes: humanized, hIgG1
B7: 57F8H3F1 H3L1 hIgG1 (antibody, V domains shown)
VH: B1 VH with V20L, R38K, V68A, M70L, T74K
VL: B1 VL with F40Y, D62V, F91Y
notes: humanized, hIgG1
B8: 57F8H3F1 H1L4 hIgG1 (antibody, V domains shown)
VH: B1 VH with V12K, I48M, V72R
VL: B1 VL with Q3V, M4L, V19A, A47P, S64A, Q104G, V108L
notes: humanized, hIgG1
B9: 57F8H3F1 H2L1 hIgG1 (antibody, V domains shown)
VH: B1 VH
VL: B1 VL with F40Y, D62V, F91Y
notes: humanized, hIgG1
B10: 57F8H3F1 H1L2 hIgG1 (antibody, V domains shown)
VH: B1 VH with V12K, I48M, V72R
VL: B1 VL
notes: humanized, hIgG1
B11: 61H8C1 H2L2 hIgG1 (antibody, V domains shown)
VH: QVQLVQSGAEVAKPGASVKVSCKASGYTFTSYWTQWIRQAPGQGLEGMGAIYPGDDDTSYNQKFKGRVTMTADTSTSTVYMELSSLRSEDTAVYYCARGATLLRPFPYWGQGTLVTVSS
VL: DIQMTQSPSSLSTSVGDRVTITCKASQDVSTAVAWYQQKPGKSPKLLIYSASYRYTGVPSRFSGSGSGTDFTLTISSLQPEDFATYSCQQHYSIPPTFGQGTKLEIK
notes: humanized, hIgG1
B12: 61H8C1 H4L4 hIgG1 (antibody, V domains shown)
VH: B11 VH with V20L, R38K, M48I, R67K, V68A, M70L, T74K, V79A, E82Q
VL: B11 VL with Q3V, S60D, S63T, L73F, L78V, Q100G
notes: humanized, hIgG1
B13: 61H8C1 H4L2 hIgG1 (antibody, V domains shown)
VH: B11 VH with V20L, R38K, M48I, R67K, V68A, M70L, T74K, V79A, E82Q
VL: B11 VL
notes: humanized, hIgG1
B14: 61H8C1 H3L1 hIgG1 (antibody, V domains shown)
VH: B11 VH with M48I, V68A, M70L, T74K, E82Q
VL: B11 VL with T13A, S43A, S87Y
notes: humanized, hIgG1
B15: 61H8C1 H3L2 hIgG1 (antibody, V domains shown)
VH: B11 VH with M48I, V68A, M70L, T74K, E82Q
VL: B11 VL
notes: humanized, hIgG1
B16: 61H8C1 H1L4 hIgG1 (antibody, V domains shown)
VH: B11 VH with A12K, I37V, G47W, A72R
VL: B11 VL with Q3V, S60D, S63T, L73F, L78V, Q100G
notes: humanized, hIgG1
B17: 61H8C1 H4L3 hIgG1 (antibody, V domains shown)
VH: B11 VH with V20L, R38K, M48I, R67K, V68A, M70L, T74K, V79A, E82Q
VL: B11 VL with S60D, L73F, Q100G
notes: humanized, hIgG1
B18: 61H8C1 H2L4 hIgG1 (antibody, V domains shown)
VH: B11 VH
VL: B11 VL with Q3V, S60D, S63T, L73F, L78V, Q100G
notes: humanized, hIgG1
B19: 61H8C1 H1L2 hIgG1 (antibody, V domains shown)
VH: B11 VH with A12K, I37V, G47W, A72R
VL: B11 VL
notes: humanized, hIgG1
B20: 61H8C1 H1L1 hIgG1 (antibody, V domains shown)
VH: B11 VH with A12K, I37V, G47W, A72R
VL: B11 VL with T13A, S43A, S87Y
notes: humanized, hIgG1
B21: 61H8C1 H2L1 hIgG1 (antibody, V domains shown)
VH: B11 VH
VL: B11 VL with T13A, S43A, S87Y
notes: humanized, hIgG1
B22: 61H8C1 H4L1 hIgG1 (antibody, V domains shown)
VH: B11 VH with V20L, R38K, M48I, R67K, V68A, M70L, T74K, V79A, E82Q
VL: B11 VL with T13A, S43A, S87Y
notes: humanized, hIgG1
B23: 61H8C1 H3L3 hIgG1 (antibody, V domains shown)
VH: B11 VH with M48I, V68A, M70L, T74K, E82Q
VL: B11 VL with S60D, L73F, Q100G
notes: humanized, hIgG1
B24: 61H8C1 H3L4 hIgG1 (antibody, V domains shown)
VH: B11 VH with M48I, V68A, M70L, T74K, E82Q
VL: B11 VL with Q3V, S60D, S63T, L73F, L78V, Q100G
notes: humanized, hIgG1
B25: 61H8C1 H1L3 hIgG1 (antibody, V domains shown)
VH: B11 VH with A12K, I37V, G47W, A72R
VL: B11 VL with S60D, L73F, Q100G
notes: humanized, hIgG1
B26: 61H8C1 H2L3 hIgG1 (antibody, V domains shown)
VH: B11 VH
VL: B11 VL with S60D, L73F, Q100G
notes: humanized, hIgG1

The target in this test is T1, human interleukin 13 receptor subunit …. The experiment in a line: FACS on A375 cells. As for the experimental part: A375 cells that endogenously expressed IL-13RA2, were harvested from flasks. 100 μl of 1×10⁶ cells/ml of cells were incubated with primary humanized antibodies in 4-fold serial dilutions starting from 200 nM to 0.003 nM for 30 minutes on ice. After being washed with 200 μl of FACS buffer twice, cells were incubated with secondary antibody for 30 minutes on ice. Cells were washed with 200 μl of FACS buffer twice and analyzed by FACS.
The term EC50 denotes the concentration at which the effect is half-maximal. In the case of B1, a half-maximal effect (EC50) was put at 0.89 nM and the “Top (MFI)” value stood at 7090 MFI.

On to B2, for which the EC50 came to 1.25 nM and the “Top (MFI)” value was 7420 MFI.

Turning to B3, it took 1.01 nM to reach a half-maximal effect (EC50) and the “Top (MFI)” value worked out at 7140 MFI.

As for B4, the EC50 is 0.81 nM and the “Top (MFI)” value was 7540 MFI.

With B5, the response was half-maximal at 0.63 nM (EC50) and the “Top (MFI)” value turned out to be 7020 MFI.

Take B6: a half-maximal effect (EC50) was put at 0.92 nM and the “Top (MFI)” value came to 7010 MFI.

Turning to B7, a half-maximal response (EC50) required 0.71 nM and the “Top (MFI)” value came to 8160 MFI.

In the case of B8, the EC50 is 0.94 nM and the “Top (MFI)” value was 7820 MFI.

B9: the concentration for a half-maximal effect (EC50) came to 0.38 nM and the “Top (MFI)” value is 6910 MFI.

Turning to B10, the EC50 stood at 0.78 nM and the “Top (MFI)” value was found to be 7510 MFI.

Consider B11, for which the EC50 amounted to 0.15 nM and the “Top (MFI)” value turned out to be 22400 MFI.

With B12, the EC50 was 0.19 nM and the “Top (MFI)” value is 21600 MFI.

Consider B13, for which it took 0.14 nM to reach a half-maximal effect (EC50) and the “Top (MFI)” value is 21100 MFI.

Consider B14, for which the concentration for a half-maximal effect (EC50) stood at 0.15 nM and the “Top (MFI)” value is 20600 MFI.

Turning to B15, the concentration giving a half-maximal response (EC50) turned out to be 0.17 nM and the “Top (MFI)” value is 22300 MFI.

Turning to B16, the concentration for a half-maximal effect (EC50) was 0.17 nM and the “Top (MFI)” value was found to be 19800 MFI.

With B17, the concentration giving a half-maximal response (EC50) amounted to 0.18 nM and the “Top (MFI)” value came out at 20800 MFI.

Take B18: the response was half-maximal at 0.18 nM (EC50) and the “Top (MFI)” value turned out to be 21900 MFI.

For B19, the EC50 is 0.15 nM and the “Top (MFI)” value was 19600 MFI.

As to B20, the EC50 came out at 0.14 nM and the “Top (MFI)” value was found to be 20300 MFI.

Take B21: the concentration giving a half-maximal response (EC50) worked out at 0.16 nM and the “Top (MFI)” value came to 22400 MFI.

For B22, a half-maximal effect (EC50) was put at 0.17 nM and the “Top (MFI)” value came out at 22200 MFI.

As for B23, the response was half-maximal at 0.15 nM (EC50) and the “Top (MFI)” value came out at 20100 MFI.

Consider B24, for which the half-maximal effective concentration (EC50) turned out to be 0.2 nM and the “Top (MFI)” value was 22000 MFI.

In the case of B25, the concentration for a half-maximal effect (EC50) came out at 0.2 nM and the “Top (MFI)” value was 20000 MFI.

For B26, a half-maximal effect (EC50) was put at 0.19 nM and the “Top (MFI)” value was determined as 22100 MFI.
